The target in data set [1] is T1, biotinylated human ACE2 (Acrobiosystems EP-105 kit) (Homo sapiens, UniProt Q9BYF1 18-740). Nature of the data set: competition ELISA. Background: In an ELISA, binding on a coated surface is turned into a signal by an enzyme label.
Data set [2] deals with T1, biotinylated human ACE2 (Acrobiosystems …). Nature of the data set: competition ELISA. This is another data set of the same source.

The term IC50 denotes the concentration that gives 50% inhibition. Read a high IC50 as weaker potency in that assay.

Where two headings read alike, the source gives them in different places.

T1 sequence (Q9BYF1 18-740): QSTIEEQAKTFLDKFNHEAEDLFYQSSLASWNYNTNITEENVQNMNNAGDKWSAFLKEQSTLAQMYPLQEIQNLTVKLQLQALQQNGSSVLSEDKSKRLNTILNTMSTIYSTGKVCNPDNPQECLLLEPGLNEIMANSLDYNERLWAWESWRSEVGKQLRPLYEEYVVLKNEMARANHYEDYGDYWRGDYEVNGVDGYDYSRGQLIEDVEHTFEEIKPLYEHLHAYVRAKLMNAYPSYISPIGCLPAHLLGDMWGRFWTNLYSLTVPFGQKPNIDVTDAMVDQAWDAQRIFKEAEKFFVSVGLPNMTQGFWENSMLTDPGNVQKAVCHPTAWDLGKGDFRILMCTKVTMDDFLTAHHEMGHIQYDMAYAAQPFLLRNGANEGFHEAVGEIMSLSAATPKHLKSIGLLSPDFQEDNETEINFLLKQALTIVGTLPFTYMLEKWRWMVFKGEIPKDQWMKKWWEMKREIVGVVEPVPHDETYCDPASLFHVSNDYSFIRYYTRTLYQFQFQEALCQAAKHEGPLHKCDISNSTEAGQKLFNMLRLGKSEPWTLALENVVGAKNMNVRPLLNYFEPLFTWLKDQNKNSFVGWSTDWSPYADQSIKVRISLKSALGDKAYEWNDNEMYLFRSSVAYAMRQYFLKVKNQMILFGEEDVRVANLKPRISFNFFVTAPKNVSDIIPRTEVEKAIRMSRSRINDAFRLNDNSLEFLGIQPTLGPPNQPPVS

B1: Apt 14 (ssDNA)
DNA: ATAGTCCCTGGCGTGCTTCCGCGAGAGTTCGACATTCCCGAAAGTACGACGAAAGTCCAGAGCAGGTACGGTGTCA
With B1, the figures for the IC50 in data set [1] and in data set [2] were 132 nM and 47 nM, respectively.

B2: Apt 6 (ssDNA)
DNA: ATAGTCCCTGGCGTGCTTGACAGCAACACGAACACTGAACGTTCTTAACAAGCCTGGCAGAGCAGGTACGGTGTCA
In the case of B2, the IC50 worked out at 35 nM in data set [1] and 33 nM in data set [2].

The values are drawn from PMC8594078.
